# According to paper PMC9546572 (Proceedings of the National Academy of Sciences of the …, 2022):
# Read-outs that look alike come from different tables or passages of the source.
# What was measured:
# Experiment in all cases: cryo-EM structure
# [1] = target: major capsid protein gp23* (cleaved form of gp23) of bacteriophage T4 (bacteriophage T4)
# cryo-EM structure [2] = target: the molecule itself
# cryo-EM structure [3] = target: the molecule itself; remark: listed apart in the source
molecule,measurement,setting,value
major capsid protein gp23* (cleaved form of gp23) of bacteriophage T4 (natural protein),stoichiometry N,[1],6
"vertex protein gp24* (cleaved form of gp24) of bacteriophage T4 (natural protein, UniProt P19896 11-427, looked up) STTTNSNSIGRPNLVALTRATTKLIYSDIVATQRTNQPVAAFYGIKYLNPDNEFTFKTGATYAGEAGYVDREQITELTEESKLTLNKGDLFKYNNIVYKVLEDTPFATIEESDLELALQIAIVLLKVRLFSDAASTSKFESSDSEIADARFQINKWQTAVKSRKLKTGITVELAQDLEANGFDAPNFLEDLLATEMADEINKDILQSLITVSKRYKVTGITDSGFIDLSYASAPEAGRSLYRMVCEMVSHIQKESTYTATFCVASARAAAILAASGWLKHKPEDDKYLSQNAYGFLANGLPLYCDTNSPLDYVIVGVVENIGEKEIVGSIFYAPYTEGLDLDDPEHVGAFKVVVDPESLQPSIGLLVRYALSANPYTVAKDEKEARIIDGGDMDKMAGRSDLSVLLGVKLPKIIIDE",stoichiometry N,cryo-EM structure [2],5
"Soc (small outer capsid protein) of bacteriophage T4 (natural protein, UniProt P03715 1-80, looked up) MASTRGYVNIKTFEQKLDGNKKIEGKEISVAFPLYSDVHKISGAHYQTFPSEKAAYSTVYEENQRTEWIAANEDLWKVTG",stoichiometry N,cryo-EM structure [3],3
